# Experimental data: patent US20170202939A1, “PERSONALIZED CANCER VACCINES AND METHODS THEREFOR” (Washington University, priority 2014, published 2017)
# Biological target: T1, soluble HLA-A*02:01 from TMC expressing A375 melanoma cells (Homo sapiens, UniProt P04439, D140Y/D185E/D98H/E176V/E277Q/G131W/G231S/I119V/I121R/I166T/I218V/L300P/L318F/N151K/N90K/P208A/P217A/Q86G/Q94H/R138H/R169H/T345S)
# T1 construct: TMC expressing A375 melanoma cells were transfected with soluble HLA-A*02:01(sHLA-A*02:01); expressed in transfected cells; host or cells: A375 melanoma cells expressing the MEL218 AAS tandem mini-gene construct
# Assay: proteomic analysis (RP-HPLC, LC/MS) of peptides eluted from soluble HLA-A*02:01
# Conditions: A375 melanoma cells expressing MEL218 TMC
# Experimental: To validate neoantigen processing and presentation, proteomic analysis was performed on peptides eluted from soluble HLA-A*02:01 molecules isolated from melanoma cells expressing a TMC encoding AAS candidates from patient MEL218 tumor (Sercarz, E. E., et al., Annu. Rev. Imunol., 11, 729-766, 1993; Assarsson, E., et al., J. Immunol., 178, 7890-7901, 2007). TMC expressing A375 melanoma cells were transfected with soluble HLA-A*02:01(sHLA-A*02:01) and single cell sorted for a high (>1000 ng/ml in static culture) sHLAA*02:01 producing clone. The sHLA-A*02:01 construct includes a C-terminal VLDLr epitope purification tag ([…] ID NO. 32) that is recognized by the anti-VLDLr mAb (ATCC CRL-2197). This antibody was also used for quantification of sHLA production as the capture antibody in a sandwich ELISA, with an antibody directed against β2-microglobulin (Dako Cytomation) as the detector antibody. Cells were grown in roller bottles and sHLA/peptide complexes were purified from supernatants by affinity chromatography with the anti-VLDLr antibody (Kaabinejadian, S., et al., P.L.o.S. One, 8, e66298, 2013). Eluate fractions containing sHLA/peptide complexes were brought to a final acetic acid concentration of 10%, pooled, and heated to 78° C. in a water bath. Peptides were purified through a 3 kDa molecular weight cutoff cellulose membrane (EMD Millipore) and lyophilized.
# Synthetic peptides corresponding to the mutant sequences were resuspended in 10% acetic acid in water at 1 μM, and fractionated by RP-HPLC with an acetonitrile gradient in 10 mM ammonium formate at pH 10. Peptide-containing fractions were dried and resuspended in 25 ul of 10% acetic acid and subjected to nanoscale RP-HPLC at pH 2.5 utilizing an Eksigent nanoLC coupled to a TripleTOF 5600 (AB Sciex) quadrupole time-of-flight mass spectrometer (LC/MS). Information dependent acquisition (IDA) was used to obtain MS and MS/MS fragment spectra for peptide ions. The sequence of each peptide was determined by observed mass and fragment ions, and the 1st dimension fraction number and LC/MS retention times were recorded.
# Next, peptides purified from TMC expressing A375 melanoma cells were resuspended in 10% acetic acid and HPLC fractionated under the same conditions and gradient method. Reverse phase HPLC was used to reduce the complexity and determine the elution profile of the pool of soluble HLA-A*02:01 restricted peptides presented by melanoma cells, as well as, the synthetic AAS peptide mixture. FIGS. 40A and 40E illustrate RP-HPLC fractionation of HLA-A*02:01 peptides eluted from the AAS-TMC expressing melanoma cell line (solid trace) and the synthetic peptide mixture containing MEL218 neoantigen candidates (dashed trace), with fraction 50 (FIG. 40A) and fraction 44 (FIG. 40E) indicated. […]
sequence,measurement,value
"YLEPGPVTA [G280, reference compound]",HLA-A*02:01 presentation by LC/MS of eluted peptides,processed and presented in the context of HLA-A*02:01 molecules
